Measured values from article PMC12069617 (Nature Communications, 2024).

Experiments:
SEC-MALS = biological target: the molecule itself; assay: SEC-MALS
[1] = biological target: histone acetyltransferase p300, full-length, Strep II-tagged (human, UniProt Q09472 1-2414); assay: cross-linking
Chain of histone acetyltransferase p300, full-length, Strep II-tagged (Q09472 whole entry): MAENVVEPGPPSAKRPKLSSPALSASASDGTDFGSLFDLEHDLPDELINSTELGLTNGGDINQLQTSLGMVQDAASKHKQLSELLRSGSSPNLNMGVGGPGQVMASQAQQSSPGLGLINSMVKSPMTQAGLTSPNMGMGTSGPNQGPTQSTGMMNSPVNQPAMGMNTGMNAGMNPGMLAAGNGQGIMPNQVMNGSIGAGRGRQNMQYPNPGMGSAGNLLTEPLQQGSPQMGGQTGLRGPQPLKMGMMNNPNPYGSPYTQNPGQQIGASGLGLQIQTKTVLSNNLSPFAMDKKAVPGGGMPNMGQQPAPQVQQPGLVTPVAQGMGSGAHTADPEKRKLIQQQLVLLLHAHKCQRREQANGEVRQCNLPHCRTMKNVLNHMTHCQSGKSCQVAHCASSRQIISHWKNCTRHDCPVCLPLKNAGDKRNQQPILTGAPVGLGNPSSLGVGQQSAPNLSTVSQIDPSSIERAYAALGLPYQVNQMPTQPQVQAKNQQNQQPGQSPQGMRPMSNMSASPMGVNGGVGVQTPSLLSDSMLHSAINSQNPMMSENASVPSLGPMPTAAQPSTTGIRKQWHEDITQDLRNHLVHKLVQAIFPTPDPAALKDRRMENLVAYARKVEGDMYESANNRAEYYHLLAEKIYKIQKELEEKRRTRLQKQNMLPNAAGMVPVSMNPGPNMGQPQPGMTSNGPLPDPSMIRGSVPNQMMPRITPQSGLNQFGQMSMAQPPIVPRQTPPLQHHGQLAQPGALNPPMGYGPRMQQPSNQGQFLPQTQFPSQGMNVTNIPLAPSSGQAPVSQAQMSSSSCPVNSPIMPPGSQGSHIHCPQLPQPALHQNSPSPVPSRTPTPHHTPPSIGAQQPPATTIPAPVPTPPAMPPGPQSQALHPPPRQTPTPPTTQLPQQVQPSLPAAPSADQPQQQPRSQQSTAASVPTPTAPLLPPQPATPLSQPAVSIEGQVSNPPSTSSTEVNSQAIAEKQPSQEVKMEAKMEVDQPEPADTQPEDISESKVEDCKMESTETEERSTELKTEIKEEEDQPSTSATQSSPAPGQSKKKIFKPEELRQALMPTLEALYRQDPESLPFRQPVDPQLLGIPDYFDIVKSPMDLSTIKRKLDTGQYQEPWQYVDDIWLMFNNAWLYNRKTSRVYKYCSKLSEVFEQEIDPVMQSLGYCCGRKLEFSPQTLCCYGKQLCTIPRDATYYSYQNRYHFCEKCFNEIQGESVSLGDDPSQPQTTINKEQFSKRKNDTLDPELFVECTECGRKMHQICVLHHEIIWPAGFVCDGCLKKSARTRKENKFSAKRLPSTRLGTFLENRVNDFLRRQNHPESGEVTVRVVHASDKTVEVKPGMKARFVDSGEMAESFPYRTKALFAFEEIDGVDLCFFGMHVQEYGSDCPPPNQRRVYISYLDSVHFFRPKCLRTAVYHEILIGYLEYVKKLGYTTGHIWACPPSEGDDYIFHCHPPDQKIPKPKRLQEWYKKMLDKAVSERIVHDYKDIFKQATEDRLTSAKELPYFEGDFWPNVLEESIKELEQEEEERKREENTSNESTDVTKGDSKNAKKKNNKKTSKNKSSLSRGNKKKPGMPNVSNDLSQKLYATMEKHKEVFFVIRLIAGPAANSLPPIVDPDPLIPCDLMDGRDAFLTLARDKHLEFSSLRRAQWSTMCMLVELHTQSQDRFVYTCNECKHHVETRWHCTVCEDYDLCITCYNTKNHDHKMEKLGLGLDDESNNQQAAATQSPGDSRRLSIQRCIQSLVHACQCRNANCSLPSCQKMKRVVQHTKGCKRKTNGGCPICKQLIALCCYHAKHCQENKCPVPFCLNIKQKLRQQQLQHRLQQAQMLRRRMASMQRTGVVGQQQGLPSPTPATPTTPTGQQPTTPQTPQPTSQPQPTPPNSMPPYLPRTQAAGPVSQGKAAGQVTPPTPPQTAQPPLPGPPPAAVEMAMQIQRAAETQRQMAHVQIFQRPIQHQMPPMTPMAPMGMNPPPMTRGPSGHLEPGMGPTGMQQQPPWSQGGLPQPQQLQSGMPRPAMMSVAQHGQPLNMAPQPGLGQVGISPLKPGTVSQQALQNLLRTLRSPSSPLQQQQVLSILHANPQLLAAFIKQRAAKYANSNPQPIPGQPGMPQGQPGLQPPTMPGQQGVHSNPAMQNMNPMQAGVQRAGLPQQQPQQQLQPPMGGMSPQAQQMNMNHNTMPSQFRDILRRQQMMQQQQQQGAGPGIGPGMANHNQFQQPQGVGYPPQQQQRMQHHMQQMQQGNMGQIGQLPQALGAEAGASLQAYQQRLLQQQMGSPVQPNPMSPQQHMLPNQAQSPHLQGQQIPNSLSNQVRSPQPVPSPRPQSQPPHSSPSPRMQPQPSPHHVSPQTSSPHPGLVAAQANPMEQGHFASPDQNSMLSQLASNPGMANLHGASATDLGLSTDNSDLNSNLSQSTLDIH

B1: progesterone receptor isoform B (PR-B), full-length, Strep II-tagged (receptor)
chain: MTELKAKGPRAPHVAGGPPSPEVGSPLLCRPAAGPFPGSQTSDTLPEVSAIPISLDGLLFPRPCQGQDPSDEKTQDQQSLSDVEGAYSRAEATRGAGGSSSSPPEKDSGLLDSVLDTLLAPSGPGQSQPSPPACEVTSSWCLFGPELPEDPPAAPATQRVLSPLMSRSGCKVGDSSGTAAAHKVLPRGLSPARQLLLPASESPHWSGAPVKPSPQAAAVEVEEEDGSESEESAGPLLKGKPRALGGAAAGGGAAAVPPGAAAGGVALVPKEDSRFSAPRVALVEQDAPMAPGRSPLATTVMDFIHVPILPLNHALLAARTRQLLEDESYDGGAGAASAFAPPRSSPCASSTPVAVGDFPDCAYPPDAEPKDDAYPLYSDFQPPALKIKEEEEGAEASARSPRSYLVAGANPAAFPDFPLGPPPPLPPRATPSRPGEAAVTAAPASASVSSASSSGSTLECILYKAEGAPPQQGPFAPPPCKAPGASGCLLPRDGLPSTSASAAAAGAAPALYPALGLNGLPQLGYQAAVLKEGLPQVYPPYLNYLRPDSEASQSPQYSFESLPQKICLICGDEASGCHYGVLTCGSCKVFFKRAMEGQHNYLCAGRNDCIVDKIRRKNCPACRLRKCCQAGMVLGGRKFKKFNKVRVVRALDAVALPQPVGVPNESQALSQRFTFSPGQDIQLIPPLINLLMSIEPDVIYAGHDNTKPDTSSSLLTSLNQLGERQLLSVVKWSKSLPGFRNLHIDDQITLIQYSWMSLMVFGLGWRSYKHVSGQMLYFAPDLILNEQRMKESSFYSLCLTMWQIPQEFVKLQVSQEEFLCMKVLLLLNTIPLEGLRSQTQFEEMRSSYIRELIKAIGLRQKGVVSSSQRFYQLTKLLDNLHDLVKQLHLYCLNTFIQSRALSVEFPEMMSEVIAAQLPKILAGMVKPLLFHKK
modifications: phosphorylated on multiple serine residues (sites not given)
stoichiometry N (SEC-MALS): 2 | binding result [1]: binds

B2: progesterone receptor isoform A (PR-A), full-length, Strep II-tagged (receptor)
chain: MSRSGCKVGDSSGTAAAHKVLPRGLSPARQLLLPASESPHWSGAPVKPSPQAAAVEVEEEDGSESEESAGPLLKGKPRALGGAAAGGGAAAVPPGAAAGGVALVPKEDSRFSAPRVALVEQDAPMAPGRSPLATTVMDFIHVPILPLNHALLAARTRQLLEDESYDGGAGAASAFAPPRSSPCASSTPVAVGDFPDCAYPPDAEPKDDAYPLYSDFQPPALKIKEEEEGAEASARSPRSYLVAGANPAAFPDFPLGPPPPLPPRATPSRPGEAAVTAAPASASVSSASSSGSTLECILYKAEGAPPQQGPFAPPPCKAPGASGCLLPRDGLPSTSASAAAAGAAPALYPALGLNGLPQLGYQAAVLKEGLPQVYPPYLNYLRPDSEASQSPQYSFESLPQKICLICGDEASGCHYGVLTCGSCKVFFKRAMEGQHNYLCAGRNDCIVDKIRRKNCPACRLRKCCQAGMVLGGRKFKKFNKVRVVRALDAVALPQPVGVPNESQALSQRFTFSPGQDIQLIPPLINLLMSIEPDVIYAGHDNTKPDTSSSLLTSLNQLGERQLLSVVKWSKSLPGFRNLHIDDQITLIQYSWMSLMVFGLGWRSYKHVSGQMLYFAPDLILNEQRMKESSFYSLCLTMWQIPQEFVKLQVSQEEFLCMKVLLLLNTIPLEGLRSQTQFEEMRSSYIRELIKAIGLRQKGVVSSSQRFYQLTKLLDNLHDLVKQLHLYCLNTFIQSRALSVEFPEMMSEVIAAQLPKILAGMVKPLLFHKK
modifications: phosphorylated on multiple serine residues (sites not given)
binding result [1]: binds
